Measurements taken from the supplement of paper PMC10126150.
± gives the standard deviation of the averaged measurements.

Test system: ATP
Experiment: switch fluorescence ratio, 500 uM ATP over buffer (Cy3 cluster intensity, sum of 5 cycles each) (fold (ratio)); higher = stronger signal-on switching upon ATP binding; sequences stand for … in TCGTCGGCAGCGTCAGATGTGTATAAGAGACAGTTTTTTTTTTTTTTTTTTTTTTTTT…TC
Details: aptamer strand: ATP DNA aptamer (quencher-CACCTGGGGGAGTATTGCGGAGGAAGG + anchor), 100 nM annealed; ATP concentration: 500 uM
Method in brief: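 Values give the fluorescence ratio for each switch-domain sequence, averaged from per-cluster ratios of summed target-cycle to summed buffer-cycle Cy3 intensity. The Cy3-labelled switching-strand clusters sat on a modified Illumina MiSeq flow-cell, were annealed to 100 nM quencher-labelled ATP aptamer, and were imaged in selection buffer, then after 15 min with 500 uM ATP at 22 °C. Five cycles ran with NaOH stripping and re-annealing between them, and clusters outside 100-1000 RFU were excluded.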
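Also: ATP exposure 15 min at 22 °C before imaging.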

Sequence | switch fluorescence ratio
TACTGGTCCG | 1.08 ± 0.074
TACTGTTTTT | 0.9832 ± 0.0056
TACTTATCCT | 1.05 ± 0.042
TACTTCATTT | 1.03 ± 0.041
TACTTCCTCC | 3.8 ± 0.44
TACTTCGAGA | 1.081 ± 0.0099
TACTTGCGGA | 1.03 ± 0.042
TACTTGGGC | 1.02 ± 0.021
TACTTTAGAC | 1.05 ± 0.011
TACTTTCTGC | 1.02 ± 0.066
TACTTTGCTT | 1.06 ± 0.038
TACTTTTATT | 1.026 ± 0.0066
TACTTTTTGG | 0.9872 ± 0.0092
TAGAAAGGGT | 1.01 ± 0.041
TAGAAAGGTC | 1.073 ± 0.0025
TAGAAAGTTG | 0.953 ± 0.083
TAGAAATTTC | 1.02 ± 0.036
TAGAACAGTT | 0.9982 ± 0.0013
TAGACATGTT | 1 ± 0.13
TAGACGGGGG | 1 ± 0.04
TAGACTTTTT | 0.997 ± 0.03
TAGAGAAAAT | 0.964 ± 0.053
TAGAGAGCCA | 1.03 ± 0.041

Sequence | switch fluorescence ratio
TAGAGAGGAG | 1.03 ± 0.021
TAGAGATGGT | 0.962 ± 0.024
TAGAGGCTGC | 0.958 ± 0.042
TAGAGGGGCT | 0.993 ± 0.03
TAGAGGGGTG | 0.991 ± 0.0026
TAGAGGGGTT | 0.985 ± 0.02
TAGAGGGTGC | 0.967 ± 0.052
TAGAGGTAGG | 0.979 ± 0.018
TAGAGGTATG | 1.01 ± 0.028
TAGAGTCCAT | 1.02 ± 0.019
TAGAGTCGTG | 0.981 ± 0.027
TAGAGTTTGG | 1 ± 0.045
TAGATAAGGC | 0.981 ± 0.018
TAGATATGAG | 1.009 ± 0.0012
TAGATCGGGG | 1.008 ± 0.01
TAGATGCTTT | 0.96461 ± 0.00038
TAGATGGGGC | 0.967 ± 0.029
TAGATGTCAG | 0.986 ± 0.016
TAGATGTGTT | 1.01 ± 0.023
TAGATTAGGA | 1.01 ± 0.036
TAGATTGTCT | 1.01 ± 0.03
TAGATTTTGC | 1.03 ± 0.027
TAGCAAGTG | 1.04 ± 0.041

Sequence | switch fluorescence ratio
TAGCAGGGTT | 0.9852 ± 0.0061
TAGCAGTCGA | 1.09 ± 0.058
TAGCAGTTGG | 0.988 ± 0.02
TAGCCATGTC | 0.924 ± 0.053
TAGCCCTGTG | 1.05 ± 0.014
TAGCCGGCCT | 1.05 ± 0.025
TAGCCTATTT | 0.975 ± 0.038
TAGCCTTACG | 1.123 ± 0.0043
TAGCGAGTAT | 1 ± 0.011
TAGCGATGGG | 1.01 ± 0.017
TAGCGCTTTA | 1.01 ± 0.017
TAGCGGGAGG | 1.02 ± 0.024
TAGCGGGGCT | 1.04 ± 0.043
TAGCTAGACG | 1.01 ± 0.012
TAGCTAGCGT | 1.01 ± 0.019
TAGCTGAGAC | 1.162 ± 0.006
TAGCTGAGGT | 1.03 ± 0.017
TAGCTGCAAA | 1.05 ± 0.024
TAGCTGGCTG | 0.986 ± 0.043
TAGCTGGGGA | 1.01 ± 0.033
TAGCTGGGGG | 0.995 ± 0.021
TAGCTTAACA | 0.979 ± 0.018
TAGCTTCTCC | 1.34 ± 0.033

Sequence | switch fluorescence ratio
TAGGAAAGGG | 0.997 ± 0.027
TAGGAAGATG | 1.02 ± 0.1
TAGGAAGCGT | 0.9777 ± 0.0039
TAGGAAGGGT | 0.997 ± 0.028
TAGGAGAGAC | 0.998 ± 0.057
TAGGAGGCGG | 0.958 ± 0.039
TAGGAGGGTG | 1.01 ± 0.035
TAGGAGGTAC | 1.01 ± 0.054
TAGGATGAGT | 0.99997 ± 0.00035
TAGGATGTCT | 1 ± 0.0021
TAGGATTACT | 1.02 ± 0.014
TAGGCACAAC | 1.15 ± 0.025
TAGGCAGGGG | 1.08 ± 0.021
TAGGCCTCGA | 0.985 ± 0.026
TAGGCGGTTT | 0.9641 ± 0.00067
TAGGCGTGCG | 0.976 ± 0.052
TAGGCTAGGG | 0.9713 ± 0.0062
TAGGCTCCAA | 1.01 ± 0.02
TAGGGAATAG | 1.14 ± 0.12
TAGGGACGCC | 1.031 ± 0.0046
TAGGGACGGC | 1.07 ± 0.095
TAGGGAGAAT | 0.992 ± 0.054
TAGGGAGGA | 0.98 ± 0.022

Sequence | switch fluorescence ratio
TAGGGAGGTG | 1.04 ± 0.053
TAGGGATAGC | 0.985 ± 0.013
TAGGGATTTC | 0.997 ± 0.019
TAGGGCACGA | 0.97 ± 0.08
TAGGGCAGGT | 1.01 ± 0.036
TAGGGCATCA | 0.987 ± 0.042
TAGGGCTGCA | 1.06 ± 0.079
TAGGGGAAGG | 1.03 ± 0.05
TAGGGGACCG | 0.991 ± 0.017
TAGGGGAGAC | 1.06 ± 0.047
TAGGGGAGGT | 1.01 ± 0.016
TAGGGGAGTG | 1.02 ± 0.035
TAGGGGATCA | 0.9839 ± 0.0036
TAGGGGCAGT | 1.09 ± 0.14
TAGGGGGCTT | 1.01 ± 0.018
TAGGGGGGTA | 0.982 ± 0.035
TAGGGGGGTC | 1 ± 0.066
TAGGGGGGTT | 1 ± 0.04
TAGGGGTCCT | 1.01 ± 0.046
TAGGGGTTAT | 0.995 ± 0.015
TAGGGTATGT | 1.01 ± 0.018
TAGGGTCGG | 1 ± 0.053
TAGGGTCGT | 0.9932 ± 0.0024

Sequence | switch fluorescence ratio
TAGGGTGGGA | 0.99 ± 0.025
TAGGGTGGGC | 0.954 ± 0.028
TAGGGTTAAT | 1.03 ± 0.038
TAGGGTTGGG | 1 ± 0.031
TAGGTAAGGG | 0.99 ± 0.026
TAGGTAATTT | 0.968 ± 0.041
TAGGTCAATC | 1.026 ± 0.0029
TAGGTCCTTG | 0.9851 ± 0.0061
TAGGTCGGGA | 0.976 ± 0.02
TAGGTCTACG | 1.02 ± 0.019
TAGGTCTTGC | 1.01 ± 0.033
TAGGTGAGTT | 1.04 ± 0.047
TAGGTGCCGT | 1 ± 0.076
TAGGTGCTTC | 1.029 ± 0.0099
TAGGTGGTCC | 0.9892 ± 0.0014
TAGGTGGTGC | 0.986 ± 0.045
TAGGTGTATG | 1.01 ± 0.033
TAGGTGTGTT | 0.981 ± 0.019
TAGGTGTTGG | 1.02 ± 0.007
TAGGTGTTTG | 0.999 ± 0.018
TAGGTTCGAG | 0.985 ± 0.011
TAGGTTGAAT | 0.984 ± 0.019
TAGGTTGCGA | 0.996 ± 0.021

Sequence | switch fluorescence ratio
TAGGTTTGAA | 0.9922 ± 0.0018
TAGGTTTGGT | 1.018 ± 0.0063
TAGGTTTGTG | 0.993 ± 0.03
TAGTACAGGC | 1.06 ± 0.015
TAGTACTTTA | 1.046 ± 0.0071
TAGTAGATTA | 0.982 ± 0.012
TAGTAGTGAG | 0.985 ± 0.013
TAGTATAGGA | 0.973 ± 0.056
TAGTATGTGT | 0.9576 ± 0.0043
TAGTCATGAG | 0.981 ± 0.017
TAGTCATTGA | 1.012 ± 0.0021
TAGTCGAGGG | 0.971 ± 0.024
TAGTCGCGTA | 1.05 ± 0.035
TAGTCTCTTG | 1 ± 0.015
TAGTGAATTT | 1 ± 0.07
TAGTGACAGC | 1.04 ± 0.014
TAGTGAGGCG | 0.926 ± 0.0095
TAGTGATGTT | 0.983 ± 0.018
TAGTGATTGC | 0.988 ± 0.025
